Numbering of substitutions follows the chain as printed. Names may count otherwise.
T1: human FcγRIIaH extracellular domain, His-tagged (human, UniProt P12318 34-217)
T1 construct: also called human FcγRIIa (type H); FcgRIIaH
T1 sequence: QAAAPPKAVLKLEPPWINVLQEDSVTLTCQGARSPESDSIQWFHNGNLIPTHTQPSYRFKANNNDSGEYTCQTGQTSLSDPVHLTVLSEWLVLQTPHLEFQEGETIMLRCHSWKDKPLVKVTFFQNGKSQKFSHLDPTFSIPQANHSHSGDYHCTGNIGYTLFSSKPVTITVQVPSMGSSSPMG

T2: cynomolgus monkey FcγRIIa3 extracellular domain, C-terminal His-tag (cynomolgus monkey)
T2 construct: also called cyno FcγRIIa3; cynoFcgRIIa3; not shown: His-tag added to C-terminus
T2 chain: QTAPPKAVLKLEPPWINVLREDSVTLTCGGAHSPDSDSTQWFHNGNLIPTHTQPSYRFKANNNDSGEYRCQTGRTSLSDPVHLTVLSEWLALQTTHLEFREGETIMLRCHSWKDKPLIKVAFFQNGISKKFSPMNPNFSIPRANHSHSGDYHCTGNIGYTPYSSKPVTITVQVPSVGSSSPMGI

T3: human FcγRIIaR extracellular domain, C-terminal His-tag (human, UniProt P12318 34-217)
T3 construct: also called human FcγRIIa (type R); FcgRIIaR; not shown: His-tag added to C-terminus
T3 chain: T1 sequence with H134R

T4: cynomolgus monkey FcγRIIa2 extracellular domain, C-terminal His-tag (cynomolgus monkey)
T4 construct: also called cyno FcγRIIa2; cynoFcgRIIa2; not shown: His-tag added to C-terminus
T4 chain: T2 chain with I127K, K130N, P133H, R142Q

T5: cynomolgus monkey FcγRIIb extracellular domain, C-terminal His-tag (cynomolgus monkey)
T5 construct: also called cyno FcγRIIb; cynoFcγRIIb; not shown: His-tag added to C-terminus
T5 chain: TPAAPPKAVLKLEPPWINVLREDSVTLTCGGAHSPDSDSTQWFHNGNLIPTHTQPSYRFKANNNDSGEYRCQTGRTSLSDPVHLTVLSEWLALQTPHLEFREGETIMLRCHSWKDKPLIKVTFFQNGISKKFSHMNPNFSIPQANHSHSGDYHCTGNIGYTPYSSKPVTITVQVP

T6: cynomolgus monkey FcγRIIa1 extracellular domain, C-terminal His-tag (cynomolgus monkey)
T6 construct: also called cyno FcγRIIa1; cynoFcgRIIa1; not shown: His-tag added to C-terminus
T6 chain: T2 chain with T95P, A121T, S128A, P133H, N135D

T7: human FcγRIIb extracellular domain, C-terminal His-tag (human, UniProt P31994 43-217)
T7 construct: also called FcgRIIb (human); not shown: His-tag added to C-terminus
T7 sequence: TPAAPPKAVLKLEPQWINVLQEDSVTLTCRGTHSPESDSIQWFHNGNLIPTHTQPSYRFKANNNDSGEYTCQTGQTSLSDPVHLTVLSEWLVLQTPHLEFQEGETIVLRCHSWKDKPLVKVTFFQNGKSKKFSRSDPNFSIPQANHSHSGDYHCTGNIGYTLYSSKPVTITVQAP

B1: MS_M103205H795-SG1/M103202L889-SK1 (antibody, human IgG1, kappa)
heavy: not shown
light: DIVMTQSPATLSLSPGERATLSCTSSQSVYHANWLSWFQQKPGQPPKLLIYWASTLAYGVPSRFSGSGSGTDFTLTISSLQPEDAATYYCAGGYGGGRYAFGQGTKVEIKRTVAAPSVFIFPPSDEQLKSGTASVVCLLNNFYPREAKVQWKVDNALQSGNSQESVTEQDSKDSTYSLSSTLTLSKADYEKHKVYACEVTHQGLSSPVTKSFNRGEC
notes: Parent antibody of the Fc variants; heavy chain constant region SG1, light chain M103202L889-SK1; also called MS1032LO06-SG1
B2: M103205H795-MY065/M103202L889-SK1 (antibody, human IgG1, kappa)
heavy: not shown
light: B1 light
notes: Substitution put into M103205H795-SG1
B3: M103205H795-MY072/M103202L889-SK1 (antibody, human IgG1, kappa)
heavy: not shown
light: B1 light
notes: as for B2
B4: M103205H795-MY008/M103202L889-SK1 (antibody, human IgG1, kappa)
heavy: not shown
light: B1 light
notes: as for B2
B5: M103205H795-MY070/M103202L889-SK1 (antibody, human IgG1, kappa)
heavy: not shown
light: B1 light
notes: as for B2
B6: M103205H795-MY048/M103202L889-SK1 (P271D) (antibody, human IgG1, kappa)
heavy: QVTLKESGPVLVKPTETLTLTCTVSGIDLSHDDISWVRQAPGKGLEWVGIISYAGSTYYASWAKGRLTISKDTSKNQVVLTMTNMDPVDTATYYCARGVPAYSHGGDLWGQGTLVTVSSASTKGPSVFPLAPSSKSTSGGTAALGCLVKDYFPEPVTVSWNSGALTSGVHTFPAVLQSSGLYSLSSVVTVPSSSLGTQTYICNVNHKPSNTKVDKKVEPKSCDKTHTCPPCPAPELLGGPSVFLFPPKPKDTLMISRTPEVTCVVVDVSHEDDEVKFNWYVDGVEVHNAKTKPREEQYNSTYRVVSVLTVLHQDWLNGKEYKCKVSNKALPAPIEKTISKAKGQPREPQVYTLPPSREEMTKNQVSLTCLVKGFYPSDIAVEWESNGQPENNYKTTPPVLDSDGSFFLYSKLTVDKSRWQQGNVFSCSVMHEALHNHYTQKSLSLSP
light: B1 light
notes: Here the P271D molecule is meant; Put into M103205H795-SG1
B7: M103205H795-MY069/M103202L889-SK1 (antibody, human IgG1, kappa)
heavy: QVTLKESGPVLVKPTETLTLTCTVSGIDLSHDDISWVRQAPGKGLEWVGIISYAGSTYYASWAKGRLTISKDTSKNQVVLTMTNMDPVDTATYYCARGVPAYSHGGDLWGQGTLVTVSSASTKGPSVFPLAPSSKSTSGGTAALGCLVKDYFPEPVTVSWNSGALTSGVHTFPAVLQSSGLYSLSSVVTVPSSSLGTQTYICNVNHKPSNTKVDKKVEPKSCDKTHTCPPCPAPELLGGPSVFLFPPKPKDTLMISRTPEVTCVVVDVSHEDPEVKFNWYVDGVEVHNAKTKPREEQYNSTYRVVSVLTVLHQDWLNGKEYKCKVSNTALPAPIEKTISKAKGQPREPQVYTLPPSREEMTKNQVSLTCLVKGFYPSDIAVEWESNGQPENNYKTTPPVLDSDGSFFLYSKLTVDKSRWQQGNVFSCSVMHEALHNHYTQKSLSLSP
light: B1 light
notes: as for B2
B8: M103205H795-MY043/M103202L889-SK1 (antibody, human IgG1, kappa)
heavy: not shown
light: B1 light
notes: as for B2
B9: M103205H795-MY037/M103202L889-SK1 (antibody, human IgG1, kappa)
heavy: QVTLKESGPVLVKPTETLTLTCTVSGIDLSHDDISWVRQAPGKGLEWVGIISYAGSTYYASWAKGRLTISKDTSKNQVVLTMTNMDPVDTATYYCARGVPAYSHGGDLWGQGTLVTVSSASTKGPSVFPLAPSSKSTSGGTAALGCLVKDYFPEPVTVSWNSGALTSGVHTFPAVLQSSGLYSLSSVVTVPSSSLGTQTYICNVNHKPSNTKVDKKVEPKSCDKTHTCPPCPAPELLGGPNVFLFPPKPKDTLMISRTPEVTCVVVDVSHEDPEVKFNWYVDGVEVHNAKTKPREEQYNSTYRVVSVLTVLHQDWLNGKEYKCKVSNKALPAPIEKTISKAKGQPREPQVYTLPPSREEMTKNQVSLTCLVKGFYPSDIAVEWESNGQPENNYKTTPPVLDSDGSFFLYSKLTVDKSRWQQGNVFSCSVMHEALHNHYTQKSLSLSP
light: B1 light
notes: as for B2
B10: M103205H795-MY038/M103202L889-SK1 (antibody, human IgG1, kappa)
heavy: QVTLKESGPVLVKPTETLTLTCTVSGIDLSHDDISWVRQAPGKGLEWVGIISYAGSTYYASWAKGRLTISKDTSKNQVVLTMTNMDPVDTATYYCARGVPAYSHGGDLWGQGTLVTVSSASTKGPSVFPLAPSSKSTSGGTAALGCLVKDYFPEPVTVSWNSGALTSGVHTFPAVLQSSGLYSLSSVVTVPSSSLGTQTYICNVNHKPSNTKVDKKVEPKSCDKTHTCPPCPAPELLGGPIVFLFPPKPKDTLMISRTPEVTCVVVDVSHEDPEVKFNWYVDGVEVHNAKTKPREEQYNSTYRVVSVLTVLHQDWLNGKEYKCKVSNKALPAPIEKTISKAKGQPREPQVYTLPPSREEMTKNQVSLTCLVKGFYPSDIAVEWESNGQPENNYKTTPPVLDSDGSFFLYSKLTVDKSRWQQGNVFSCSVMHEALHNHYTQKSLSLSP
light: B1 light
notes: as for B2
B11: M103205H795-MY044/M103202L889-SK1 (antibody, human IgG1, kappa)
heavy: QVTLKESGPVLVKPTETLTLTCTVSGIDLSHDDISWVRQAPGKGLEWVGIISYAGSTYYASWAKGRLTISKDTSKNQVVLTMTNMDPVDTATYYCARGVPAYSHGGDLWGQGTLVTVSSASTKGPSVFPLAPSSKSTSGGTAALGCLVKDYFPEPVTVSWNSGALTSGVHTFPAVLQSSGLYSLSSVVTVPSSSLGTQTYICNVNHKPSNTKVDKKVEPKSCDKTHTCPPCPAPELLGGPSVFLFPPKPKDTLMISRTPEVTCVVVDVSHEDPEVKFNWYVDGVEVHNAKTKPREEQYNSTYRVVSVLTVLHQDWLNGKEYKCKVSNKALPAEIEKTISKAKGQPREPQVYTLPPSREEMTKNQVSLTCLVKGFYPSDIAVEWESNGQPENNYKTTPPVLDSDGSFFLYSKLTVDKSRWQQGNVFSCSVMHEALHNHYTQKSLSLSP
light: B1 light
notes: as for B2
B12: M103205H795-MY064/M103202L889-SK1 (antibody, human IgG1, kappa)
heavy: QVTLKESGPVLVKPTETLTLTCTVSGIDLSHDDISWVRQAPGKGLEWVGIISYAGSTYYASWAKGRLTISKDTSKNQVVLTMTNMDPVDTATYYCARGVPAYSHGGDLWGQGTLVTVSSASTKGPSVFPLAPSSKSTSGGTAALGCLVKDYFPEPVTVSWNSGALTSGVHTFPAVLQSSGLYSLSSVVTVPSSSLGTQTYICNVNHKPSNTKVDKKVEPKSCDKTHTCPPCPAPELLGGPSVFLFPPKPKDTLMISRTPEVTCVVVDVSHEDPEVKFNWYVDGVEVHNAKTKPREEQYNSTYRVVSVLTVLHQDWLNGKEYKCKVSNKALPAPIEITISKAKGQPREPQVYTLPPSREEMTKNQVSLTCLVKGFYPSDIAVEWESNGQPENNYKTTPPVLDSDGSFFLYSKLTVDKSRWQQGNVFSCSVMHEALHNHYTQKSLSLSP
light: B1 light
notes: as for B2
B13: M103205H795-MY045/M103202L889-SK1 (antibody, human IgG1, kappa)
heavy: not shown
light: B1 light
notes: as for B2
B14: M103205H795-MY010/M103202L889-SK1 (antibody, human IgG1, kappa)
heavy: not shown
light: B1 light
notes: as for B2
B15: M103205H795-MY068/M103202L889-SK1 (antibody, human IgG1, kappa)
heavy: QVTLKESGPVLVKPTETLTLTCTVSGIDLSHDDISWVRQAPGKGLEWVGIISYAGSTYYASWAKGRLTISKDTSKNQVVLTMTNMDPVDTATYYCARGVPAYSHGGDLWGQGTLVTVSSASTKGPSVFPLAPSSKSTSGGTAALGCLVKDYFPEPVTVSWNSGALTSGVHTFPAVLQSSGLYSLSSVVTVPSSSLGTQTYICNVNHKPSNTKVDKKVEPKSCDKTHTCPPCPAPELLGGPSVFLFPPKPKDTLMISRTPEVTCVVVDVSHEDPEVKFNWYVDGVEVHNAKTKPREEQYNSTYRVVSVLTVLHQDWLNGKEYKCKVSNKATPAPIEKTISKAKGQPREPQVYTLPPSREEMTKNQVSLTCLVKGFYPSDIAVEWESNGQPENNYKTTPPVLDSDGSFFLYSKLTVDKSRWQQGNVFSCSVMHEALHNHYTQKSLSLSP
light: B1 light
notes: as for B2
B16: M103205H795-MY071/M103202L889-SK1 (antibody, human IgG1, kappa)
heavy: not shown
light: B1 light
notes: as for B2
B17: M103205H795-MY016/M103202L889-SK1 (antibody, human IgG1, kappa)
heavy: not shown
light: B1 light
notes: as for B2
B18: M103205H795-MY063/M103202L889-SK1 (antibody, human IgG1, kappa)
heavy: not shown
light: B1 light
notes: as for B2
B19: M103205H795-MY014/M103202L889-SK1 (antibody, human IgG1, kappa)
heavy: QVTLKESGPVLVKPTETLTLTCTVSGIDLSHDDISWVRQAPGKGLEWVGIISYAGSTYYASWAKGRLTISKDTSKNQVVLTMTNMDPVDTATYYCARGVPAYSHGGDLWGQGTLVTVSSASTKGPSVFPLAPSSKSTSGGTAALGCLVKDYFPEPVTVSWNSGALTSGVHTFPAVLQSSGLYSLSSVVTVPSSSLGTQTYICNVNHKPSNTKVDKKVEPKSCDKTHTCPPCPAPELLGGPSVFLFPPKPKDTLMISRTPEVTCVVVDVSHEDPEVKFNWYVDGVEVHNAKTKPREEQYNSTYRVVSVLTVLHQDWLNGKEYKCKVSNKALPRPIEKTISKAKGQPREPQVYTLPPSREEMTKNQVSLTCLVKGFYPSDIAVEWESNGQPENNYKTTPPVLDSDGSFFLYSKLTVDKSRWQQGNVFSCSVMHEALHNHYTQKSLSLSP
light: B1 light
notes: as for B2
B20: M103205H795-MY073/M103202L889-SK1 (antibody, human IgG1, kappa)
heavy: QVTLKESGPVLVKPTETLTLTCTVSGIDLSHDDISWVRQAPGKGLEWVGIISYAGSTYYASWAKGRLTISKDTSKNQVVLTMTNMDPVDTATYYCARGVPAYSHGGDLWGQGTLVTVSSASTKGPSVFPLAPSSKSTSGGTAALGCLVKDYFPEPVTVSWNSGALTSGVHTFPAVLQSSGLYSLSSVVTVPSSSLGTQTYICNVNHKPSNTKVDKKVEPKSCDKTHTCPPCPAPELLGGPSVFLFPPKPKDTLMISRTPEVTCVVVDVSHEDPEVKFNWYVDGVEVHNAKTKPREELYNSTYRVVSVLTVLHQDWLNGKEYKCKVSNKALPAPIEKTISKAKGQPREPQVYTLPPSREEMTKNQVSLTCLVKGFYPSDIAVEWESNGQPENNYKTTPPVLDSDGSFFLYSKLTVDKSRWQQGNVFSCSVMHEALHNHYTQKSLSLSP
light: B1 light
notes: as for B2
B21: M103205H795-MY006/M103202L889-SK1 (antibody, human IgG1, kappa)
heavy: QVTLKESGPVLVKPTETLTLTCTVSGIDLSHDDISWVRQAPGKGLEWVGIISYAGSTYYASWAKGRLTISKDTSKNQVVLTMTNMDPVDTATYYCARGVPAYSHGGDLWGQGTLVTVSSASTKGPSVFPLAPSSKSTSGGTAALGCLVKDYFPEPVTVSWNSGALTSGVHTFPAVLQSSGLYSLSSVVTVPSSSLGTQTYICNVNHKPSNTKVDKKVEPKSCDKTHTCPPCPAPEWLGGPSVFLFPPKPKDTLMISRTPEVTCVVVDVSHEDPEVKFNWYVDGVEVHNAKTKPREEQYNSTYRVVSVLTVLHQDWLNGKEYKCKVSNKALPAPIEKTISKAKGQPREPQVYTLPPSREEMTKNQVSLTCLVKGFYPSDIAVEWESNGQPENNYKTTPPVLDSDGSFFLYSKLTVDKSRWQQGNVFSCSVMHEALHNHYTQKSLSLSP
light: B1 light
notes: as for B2
B22: M103205H795-MY041/M103202L889-SK1 (antibody, human IgG1, kappa)
heavy: not shown
light: B1 light
notes: as for B2
B23: M103205H795-MY013/M103202L889-SK1 (antibody, human IgG1, kappa)
heavy: not shown
light: B1 light
notes: as for B2
B24: M103205H795-MY312/M103202L889-SK1 (antibody, human IgG1, kappa)
heavy: QVTLKESGPVLVKPTETLTLTCTVSGIDLSHDDISWVRQAPGKGLEWVGIISYAGSTYYASWAKGRLTISKDTSKNQVVLTMTNMDPVDTATYYCARGVPAYSHGGDLWGQGTLVTVSSASTKGPSVFPLAPSSKSTSGGTAALGCLVKDYFPEPVTVSWNSGALTSGVHTFPAVLQSSGLYSLSSVVTVPSSSLGTQTYICNVNHKPSNTKVDKKVEPKSCDKTHTCPPCPAPELLTGPSVFLFPPKPKDTLMISRTPEVTCVVVDVSEEDPEVKFNWYVDGVEVHNAKTKPREEQYNSTYRVVSVLTVLHQDWLNGKEYKCKVSNTALPKPIEKTISKAKGQPREPQVYTLPPSREEMTKNQVSLTCLVKGFYPSDIAVEWESNGQPENNYKTTPMVLDSDGSFFLYSKLTVDKSRWQQGNVFSCSVMHEALHNHYTQKSLSLSP
light: B1 light
B25: M103205H795-MY310/M103202L889-SK1 (antibody, human IgG1, kappa)
heavy: B24 heavy with M398P
light: B1 light
B26: M103205H795-MY311/M103202L889-SK1 (antibody, human IgG1, kappa)
heavy: B24 heavy with Q297L, T328K, M398P
light: B1 light
B27: M103205H795-MY309/M103202L889-SK1 (antibody, human IgG1, kappa)
heavy: B24 heavy with T328K
light: B1 light
B28: M103205H795-MY318/M103202L889-SK1 (antibody, human IgG1, kappa)
heavy: B24 heavy with T238L
light: B1 light
B29: M103205H795-MY321/M103202L889-SK1 (antibody, human IgG1, kappa)
heavy: B24 heavy with T238H, E270D, T328K
light: B1 light

target: T1, human FcγRIIaH extracellular domain, …; experiment: SPR; KD of SG1 / KD of variant;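 note: relative to parent M103205H795-SG1 carrying the SG1 human heavy chain constant region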

Row | Binder | KD fold (SG1 = 1) [fold]
1 | B1 | 1
2 | B2 | 1.3
3 | B3 | 2.8
4 | B4 | 0.4
5 | B5 | 1.4
6 | B6 | 0.4
7 | B7 | 1.6
8 | B8 | 0.2
9 | B9 | 0.6
10 | B10 | 0.6
11 | B11 | 0.6
12 | B12 | 1.4
13 | B13 | 0.4
14 | B14 | 0.6
15 | B15 | 1.9
16 | B16 | 1.7
17 | B17 | 0.8
18 | B18 | 2.6
19 | B19 | 1.3
20 | B20 | 2.9
21 | B21 | 0.5
22 | B22 | 0.4
23 | B23 | 0.3

Target: T2, cynomolgus monkey FcγRIIa3 …
Experiment: SPR (Biacore), antibody captured, FcgR analyte, 25 C

Row | Binder | Kd [nM]
24 | B24 | 3700
25 | B25 | 7200
26 | B26 | 8600
27 | B27 | 7000
28 | B28 | 32000
29 | B29 | 2900

Target: T3, human FcγRIIaR extracellular domain, …
Experiment: as above

Row | Binder | Kd [nM]
30 | B24 | 170
31 | B25 | 550
32 | B26 | 450
33 | B27 | 260
34 | B28 | 1300
35 | B29 | 350

Target: T4, cynomolgus monkey FcγRIIa2 …
Experiment: as above

Row | Binder | Kd [nM]
36 | B24 | 1500
37 | B25 | 2900
38 | B26 | 3400
39 | B27 | 2500
40 | B28 | 7700
41 | B29 | 2200

Target: T5, cynomolgus monkey FcγRIIb extracellular …
Experiment: as above

Row | Binder | Kd [nM]
42 | B24 | 400
43 | B25 | 950
44 | B26 | 780
45 | B27 | 710
46 | B28 | 2200
47 | B29 | 540

Target: T6, cynomolgus monkey FcγRIIa1 …
Experiment: as above

Row | Binder | Kd [nM]
48 | B24 | 1400
49 | B25 | 3000
50 | B26 | 2300
51 | B27 | 3500
52 | B28 | 7900
53 | B29 | 2300

target: T7, human FcγRIIb extracellular domain, …; experiment: as above

Row | Binder | Kd [nM]
54 | B24 | 1100
55 | B25 | 2900
56 | B26 | 2100
57 | B27 | 1600
58 | B28 | 4800
59 | B29 | 2600

target: T8, human FcγRIIIaV extracellular domain, C-terminal His-tag (human, UniProt P08637 17-208); experiment: as above
T8 construct: also called FcgRIIIaV; not shown: His-tag added to C-terminus
T8 sequence (P08637 17-208 F176V): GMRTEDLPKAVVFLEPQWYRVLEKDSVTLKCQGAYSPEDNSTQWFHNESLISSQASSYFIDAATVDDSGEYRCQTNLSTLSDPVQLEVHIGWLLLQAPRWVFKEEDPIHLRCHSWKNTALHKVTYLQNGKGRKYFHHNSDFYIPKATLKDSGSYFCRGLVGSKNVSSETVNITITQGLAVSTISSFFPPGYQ

Row | Binder | Kd [nM]
60 | B24 | 2800
61 | B25 | 6900
62 | B26 | 7100
63 | B27 | 4300
64 | B28 | 8700
65 | B29 | 3400
